Assay results: patent US20130149248A1
Where two headings read alike, the source gives them in different places.

Key:
[1] = target: αvβ6 on VB6 cells (human) (UniProt P06756); experiment: cell-based or functional assay
[2] = target: T1, recombinant soluble αvβ6, P06756; experiment: non-competitive binding ELISA; biotinylated peptide on immobilised rsαvβ6
T1 chain 1: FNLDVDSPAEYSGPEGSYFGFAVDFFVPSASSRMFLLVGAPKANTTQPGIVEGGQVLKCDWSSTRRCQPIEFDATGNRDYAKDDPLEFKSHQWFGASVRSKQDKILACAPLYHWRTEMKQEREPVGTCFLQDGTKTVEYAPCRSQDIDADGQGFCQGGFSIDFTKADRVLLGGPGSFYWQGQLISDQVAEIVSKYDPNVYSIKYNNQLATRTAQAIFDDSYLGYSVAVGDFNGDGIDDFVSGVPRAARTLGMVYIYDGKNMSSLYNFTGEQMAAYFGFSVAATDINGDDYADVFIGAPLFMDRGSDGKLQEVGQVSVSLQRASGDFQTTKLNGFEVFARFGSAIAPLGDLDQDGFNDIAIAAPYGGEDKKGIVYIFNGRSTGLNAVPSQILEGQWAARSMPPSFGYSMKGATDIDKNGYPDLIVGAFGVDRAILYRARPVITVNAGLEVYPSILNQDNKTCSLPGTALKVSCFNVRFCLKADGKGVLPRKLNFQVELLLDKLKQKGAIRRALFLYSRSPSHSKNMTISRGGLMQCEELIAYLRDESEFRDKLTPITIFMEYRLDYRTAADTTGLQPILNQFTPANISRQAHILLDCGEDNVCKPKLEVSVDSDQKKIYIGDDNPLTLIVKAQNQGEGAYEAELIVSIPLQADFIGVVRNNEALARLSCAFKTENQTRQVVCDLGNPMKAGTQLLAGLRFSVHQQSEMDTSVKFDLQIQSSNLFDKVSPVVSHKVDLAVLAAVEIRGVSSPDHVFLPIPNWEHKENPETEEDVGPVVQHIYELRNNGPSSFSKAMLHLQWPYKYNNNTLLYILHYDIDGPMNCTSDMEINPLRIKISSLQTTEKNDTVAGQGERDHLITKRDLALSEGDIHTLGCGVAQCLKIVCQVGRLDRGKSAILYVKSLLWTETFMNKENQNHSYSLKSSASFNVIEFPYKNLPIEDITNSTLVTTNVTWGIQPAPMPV
T1 chain 2: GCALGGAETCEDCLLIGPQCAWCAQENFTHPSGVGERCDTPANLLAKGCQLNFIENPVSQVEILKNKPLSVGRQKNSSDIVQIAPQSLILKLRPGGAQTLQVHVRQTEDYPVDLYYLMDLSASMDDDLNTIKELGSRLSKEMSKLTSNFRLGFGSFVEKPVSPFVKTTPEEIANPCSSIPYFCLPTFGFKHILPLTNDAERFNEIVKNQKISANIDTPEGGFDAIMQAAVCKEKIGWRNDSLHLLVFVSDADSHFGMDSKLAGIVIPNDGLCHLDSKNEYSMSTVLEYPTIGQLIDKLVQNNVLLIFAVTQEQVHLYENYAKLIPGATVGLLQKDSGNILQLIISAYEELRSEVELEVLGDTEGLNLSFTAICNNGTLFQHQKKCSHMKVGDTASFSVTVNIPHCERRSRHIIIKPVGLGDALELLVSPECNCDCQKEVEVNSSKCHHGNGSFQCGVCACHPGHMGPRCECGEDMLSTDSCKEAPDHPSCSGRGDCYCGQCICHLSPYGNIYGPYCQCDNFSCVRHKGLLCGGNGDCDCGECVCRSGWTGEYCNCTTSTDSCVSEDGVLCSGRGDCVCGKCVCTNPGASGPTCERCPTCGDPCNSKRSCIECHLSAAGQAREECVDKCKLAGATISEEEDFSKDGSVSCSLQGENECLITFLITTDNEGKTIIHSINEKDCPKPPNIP

[3] = target: T1, recombinant soluble αvβ6, P06756
[4] = target: T2, αvβ6 on 3T3β6.19 cells (mouse; human), P43406; experiment: cell-based or functional assay
T2 chain 1: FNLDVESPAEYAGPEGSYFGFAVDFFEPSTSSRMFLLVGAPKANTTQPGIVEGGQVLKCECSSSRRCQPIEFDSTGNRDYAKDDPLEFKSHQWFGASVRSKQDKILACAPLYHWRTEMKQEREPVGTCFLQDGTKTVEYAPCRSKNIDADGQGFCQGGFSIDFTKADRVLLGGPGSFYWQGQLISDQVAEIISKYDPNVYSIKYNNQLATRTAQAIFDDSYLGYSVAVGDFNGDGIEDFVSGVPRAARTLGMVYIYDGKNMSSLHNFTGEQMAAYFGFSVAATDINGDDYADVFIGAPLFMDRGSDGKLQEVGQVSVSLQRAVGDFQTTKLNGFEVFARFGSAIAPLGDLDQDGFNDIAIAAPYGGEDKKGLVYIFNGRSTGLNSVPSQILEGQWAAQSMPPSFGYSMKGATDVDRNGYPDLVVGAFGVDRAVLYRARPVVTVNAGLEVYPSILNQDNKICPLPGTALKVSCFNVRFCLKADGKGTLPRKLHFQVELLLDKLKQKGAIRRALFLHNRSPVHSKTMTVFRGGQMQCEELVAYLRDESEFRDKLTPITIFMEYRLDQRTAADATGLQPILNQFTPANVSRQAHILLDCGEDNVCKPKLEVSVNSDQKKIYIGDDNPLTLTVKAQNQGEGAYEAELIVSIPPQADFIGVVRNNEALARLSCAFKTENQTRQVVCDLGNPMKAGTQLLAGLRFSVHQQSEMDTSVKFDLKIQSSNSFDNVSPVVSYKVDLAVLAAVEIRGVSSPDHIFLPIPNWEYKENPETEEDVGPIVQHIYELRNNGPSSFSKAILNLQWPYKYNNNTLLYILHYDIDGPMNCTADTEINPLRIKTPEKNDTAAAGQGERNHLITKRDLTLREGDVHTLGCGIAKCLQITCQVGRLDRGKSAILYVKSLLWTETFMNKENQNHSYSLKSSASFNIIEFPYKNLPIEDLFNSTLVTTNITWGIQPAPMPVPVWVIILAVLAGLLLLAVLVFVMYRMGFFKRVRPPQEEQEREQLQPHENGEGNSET
T2 chain 2: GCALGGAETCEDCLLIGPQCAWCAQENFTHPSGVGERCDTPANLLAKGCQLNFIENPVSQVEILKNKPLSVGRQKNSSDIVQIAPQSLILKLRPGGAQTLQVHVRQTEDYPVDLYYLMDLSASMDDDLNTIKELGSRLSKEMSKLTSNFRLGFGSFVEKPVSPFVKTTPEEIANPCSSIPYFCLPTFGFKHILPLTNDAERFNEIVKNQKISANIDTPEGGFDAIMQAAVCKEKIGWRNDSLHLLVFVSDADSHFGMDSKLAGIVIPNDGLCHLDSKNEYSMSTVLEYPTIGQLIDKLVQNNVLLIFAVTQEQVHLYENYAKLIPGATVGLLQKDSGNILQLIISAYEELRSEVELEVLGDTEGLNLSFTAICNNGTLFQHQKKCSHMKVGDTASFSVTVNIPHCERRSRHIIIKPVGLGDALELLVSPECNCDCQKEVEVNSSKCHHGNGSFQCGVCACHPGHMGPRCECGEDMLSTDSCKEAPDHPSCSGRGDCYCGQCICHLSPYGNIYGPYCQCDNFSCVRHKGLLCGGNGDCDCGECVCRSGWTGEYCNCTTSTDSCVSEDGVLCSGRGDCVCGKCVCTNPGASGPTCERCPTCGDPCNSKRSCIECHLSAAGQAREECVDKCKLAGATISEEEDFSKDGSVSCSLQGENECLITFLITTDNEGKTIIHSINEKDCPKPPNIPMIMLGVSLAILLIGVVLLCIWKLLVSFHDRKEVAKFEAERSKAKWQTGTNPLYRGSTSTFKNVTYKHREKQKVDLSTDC

[5] = target: T1, recombinant soluble αvβ6, P06756; experiment: competitive sandwich ELISA; rsαvβ6 captured on anti-αv P2W7; competitor biotinylated fibronectin
[6] = target: T1, recombinant soluble αvβ6, P06756; experiment: competitive (Screening) ELISA; rsαvβ6 captured on anti-αv P2W7; competitor biotinylated fibronectin

A20FMDV1 (peptide)
IC50, inhibition of adhesion of VB6 cells to LAP [1]: 38200 nM

CYVPNLRGDLQVLAQKVAKC (modifications not checked) [B-DBD2]
EC50 [2]: 1.7 nM

VPNLRGDLQVLA (modifications not checked) [DD19]
IC50 [3]: 85 nM | IC50 of inhibition of αvβ6-dependent binding of cells to LAP [4]: 190000 nM

TGRRGDLATI (modifications not checked) [DD3]
adhesion of 3T3β6.19 to LAP in the presence of 20 µM peptide, % of control cell adhesion (% of control cell adhesion) [4]: 79 | IC50 [5]: 22.6 nM

GFTTGRRGDLATIHGMNRPF (modifications not checked) [A20LAP]
adhesion of 3T3β6.19 to LAP in the presence of 20 µM peptide, % of control cell adhesion (% of control cell adhesion) [4]: 32

FTTGRRGDLATI (modifications not checked) [DD2]
IC50 [5]: 30.9 nM

SAAARGDLEQLTSLLQNNVN (modifications not checked) [P_18INK]
IC50 [6]: 23 nM

RRGDLATIH (modifications not checked) [DD1]
IC50 of inhibition of αvβ6-dependent binding of 3T3β6.19 to LAP [4]: 216000 nM | adhesion of 3T3β6.19 to LAP in the presence of 20 µM peptide, % of control cell adhesion (% of control cell adhesion) [4]: 57
